Measured values published in US20220154181A1.
Blank lines part the entries; values can stand above or below the molecule they belong to.

How the values were obtained:
[1] = test system: T1, NHS-Rhodamine labelled recombinant Tma17p (γ-subunit); experiment: titration of NHS-Rhodamine labelled γ-subunit against ΔTma17p-FAS, native agarose gel, fluorescence of FAS-bound Tma17p quantified
T1 sequence: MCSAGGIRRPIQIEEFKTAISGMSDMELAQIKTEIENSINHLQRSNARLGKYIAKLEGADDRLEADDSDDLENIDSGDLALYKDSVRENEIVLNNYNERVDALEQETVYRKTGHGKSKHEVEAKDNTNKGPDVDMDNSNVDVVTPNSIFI

[2] = biological target: Saccharomyces cerevisiae type I fatty acid synthase (α6β6, 2.6 MDa) without the γ-subunit (Saccharomyces cerevisiae) (UniProt P19097); experiment: cell-based or functional assay
UniProt P19097, sequence (P19097 whole entry, chain 1 of 2): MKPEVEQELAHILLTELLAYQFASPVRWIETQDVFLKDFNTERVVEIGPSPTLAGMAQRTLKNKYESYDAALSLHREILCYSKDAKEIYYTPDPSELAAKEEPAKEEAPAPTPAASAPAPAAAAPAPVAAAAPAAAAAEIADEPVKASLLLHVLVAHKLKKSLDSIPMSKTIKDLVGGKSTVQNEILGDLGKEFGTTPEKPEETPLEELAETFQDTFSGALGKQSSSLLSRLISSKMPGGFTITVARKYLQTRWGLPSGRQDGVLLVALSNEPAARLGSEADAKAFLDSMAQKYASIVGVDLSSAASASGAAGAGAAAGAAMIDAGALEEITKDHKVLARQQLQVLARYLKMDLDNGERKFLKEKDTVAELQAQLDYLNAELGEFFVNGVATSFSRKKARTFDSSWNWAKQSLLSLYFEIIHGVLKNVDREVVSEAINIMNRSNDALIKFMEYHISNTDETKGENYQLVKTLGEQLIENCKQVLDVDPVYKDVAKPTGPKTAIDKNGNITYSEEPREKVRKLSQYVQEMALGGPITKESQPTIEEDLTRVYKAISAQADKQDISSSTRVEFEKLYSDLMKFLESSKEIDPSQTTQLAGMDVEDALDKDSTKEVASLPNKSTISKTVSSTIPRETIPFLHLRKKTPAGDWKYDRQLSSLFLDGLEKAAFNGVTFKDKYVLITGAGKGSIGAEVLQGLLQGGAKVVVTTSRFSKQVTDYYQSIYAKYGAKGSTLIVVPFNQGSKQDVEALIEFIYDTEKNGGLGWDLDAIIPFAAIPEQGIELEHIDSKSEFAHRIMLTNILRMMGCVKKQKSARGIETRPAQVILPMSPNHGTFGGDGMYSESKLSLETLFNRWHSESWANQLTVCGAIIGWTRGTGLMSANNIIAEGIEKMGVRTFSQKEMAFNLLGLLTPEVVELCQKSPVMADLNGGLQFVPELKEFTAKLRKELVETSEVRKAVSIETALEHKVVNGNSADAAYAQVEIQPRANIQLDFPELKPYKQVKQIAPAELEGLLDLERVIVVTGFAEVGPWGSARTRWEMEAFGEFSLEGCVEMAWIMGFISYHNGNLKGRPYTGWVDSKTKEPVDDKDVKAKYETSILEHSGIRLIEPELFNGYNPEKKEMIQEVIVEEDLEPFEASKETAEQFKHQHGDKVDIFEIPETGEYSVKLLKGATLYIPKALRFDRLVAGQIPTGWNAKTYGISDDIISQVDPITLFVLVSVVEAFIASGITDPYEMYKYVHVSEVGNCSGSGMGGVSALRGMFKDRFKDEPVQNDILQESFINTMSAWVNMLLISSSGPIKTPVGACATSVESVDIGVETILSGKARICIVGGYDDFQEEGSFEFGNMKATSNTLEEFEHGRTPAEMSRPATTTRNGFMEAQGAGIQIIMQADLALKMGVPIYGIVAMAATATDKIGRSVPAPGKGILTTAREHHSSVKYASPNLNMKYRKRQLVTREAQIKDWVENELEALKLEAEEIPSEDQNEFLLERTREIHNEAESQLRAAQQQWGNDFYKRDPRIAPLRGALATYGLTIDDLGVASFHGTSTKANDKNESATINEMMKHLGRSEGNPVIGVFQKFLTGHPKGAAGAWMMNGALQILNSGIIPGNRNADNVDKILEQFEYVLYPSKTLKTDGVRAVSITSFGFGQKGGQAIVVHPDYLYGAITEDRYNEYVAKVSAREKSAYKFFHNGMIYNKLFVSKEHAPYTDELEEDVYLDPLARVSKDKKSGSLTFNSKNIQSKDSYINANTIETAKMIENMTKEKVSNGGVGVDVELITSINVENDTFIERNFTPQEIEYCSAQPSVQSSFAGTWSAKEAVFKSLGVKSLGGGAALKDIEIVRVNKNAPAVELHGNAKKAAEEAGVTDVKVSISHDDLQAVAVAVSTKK
UniProt P19097, sequence (P07149 whole entry, chain 2 of 2, further chain): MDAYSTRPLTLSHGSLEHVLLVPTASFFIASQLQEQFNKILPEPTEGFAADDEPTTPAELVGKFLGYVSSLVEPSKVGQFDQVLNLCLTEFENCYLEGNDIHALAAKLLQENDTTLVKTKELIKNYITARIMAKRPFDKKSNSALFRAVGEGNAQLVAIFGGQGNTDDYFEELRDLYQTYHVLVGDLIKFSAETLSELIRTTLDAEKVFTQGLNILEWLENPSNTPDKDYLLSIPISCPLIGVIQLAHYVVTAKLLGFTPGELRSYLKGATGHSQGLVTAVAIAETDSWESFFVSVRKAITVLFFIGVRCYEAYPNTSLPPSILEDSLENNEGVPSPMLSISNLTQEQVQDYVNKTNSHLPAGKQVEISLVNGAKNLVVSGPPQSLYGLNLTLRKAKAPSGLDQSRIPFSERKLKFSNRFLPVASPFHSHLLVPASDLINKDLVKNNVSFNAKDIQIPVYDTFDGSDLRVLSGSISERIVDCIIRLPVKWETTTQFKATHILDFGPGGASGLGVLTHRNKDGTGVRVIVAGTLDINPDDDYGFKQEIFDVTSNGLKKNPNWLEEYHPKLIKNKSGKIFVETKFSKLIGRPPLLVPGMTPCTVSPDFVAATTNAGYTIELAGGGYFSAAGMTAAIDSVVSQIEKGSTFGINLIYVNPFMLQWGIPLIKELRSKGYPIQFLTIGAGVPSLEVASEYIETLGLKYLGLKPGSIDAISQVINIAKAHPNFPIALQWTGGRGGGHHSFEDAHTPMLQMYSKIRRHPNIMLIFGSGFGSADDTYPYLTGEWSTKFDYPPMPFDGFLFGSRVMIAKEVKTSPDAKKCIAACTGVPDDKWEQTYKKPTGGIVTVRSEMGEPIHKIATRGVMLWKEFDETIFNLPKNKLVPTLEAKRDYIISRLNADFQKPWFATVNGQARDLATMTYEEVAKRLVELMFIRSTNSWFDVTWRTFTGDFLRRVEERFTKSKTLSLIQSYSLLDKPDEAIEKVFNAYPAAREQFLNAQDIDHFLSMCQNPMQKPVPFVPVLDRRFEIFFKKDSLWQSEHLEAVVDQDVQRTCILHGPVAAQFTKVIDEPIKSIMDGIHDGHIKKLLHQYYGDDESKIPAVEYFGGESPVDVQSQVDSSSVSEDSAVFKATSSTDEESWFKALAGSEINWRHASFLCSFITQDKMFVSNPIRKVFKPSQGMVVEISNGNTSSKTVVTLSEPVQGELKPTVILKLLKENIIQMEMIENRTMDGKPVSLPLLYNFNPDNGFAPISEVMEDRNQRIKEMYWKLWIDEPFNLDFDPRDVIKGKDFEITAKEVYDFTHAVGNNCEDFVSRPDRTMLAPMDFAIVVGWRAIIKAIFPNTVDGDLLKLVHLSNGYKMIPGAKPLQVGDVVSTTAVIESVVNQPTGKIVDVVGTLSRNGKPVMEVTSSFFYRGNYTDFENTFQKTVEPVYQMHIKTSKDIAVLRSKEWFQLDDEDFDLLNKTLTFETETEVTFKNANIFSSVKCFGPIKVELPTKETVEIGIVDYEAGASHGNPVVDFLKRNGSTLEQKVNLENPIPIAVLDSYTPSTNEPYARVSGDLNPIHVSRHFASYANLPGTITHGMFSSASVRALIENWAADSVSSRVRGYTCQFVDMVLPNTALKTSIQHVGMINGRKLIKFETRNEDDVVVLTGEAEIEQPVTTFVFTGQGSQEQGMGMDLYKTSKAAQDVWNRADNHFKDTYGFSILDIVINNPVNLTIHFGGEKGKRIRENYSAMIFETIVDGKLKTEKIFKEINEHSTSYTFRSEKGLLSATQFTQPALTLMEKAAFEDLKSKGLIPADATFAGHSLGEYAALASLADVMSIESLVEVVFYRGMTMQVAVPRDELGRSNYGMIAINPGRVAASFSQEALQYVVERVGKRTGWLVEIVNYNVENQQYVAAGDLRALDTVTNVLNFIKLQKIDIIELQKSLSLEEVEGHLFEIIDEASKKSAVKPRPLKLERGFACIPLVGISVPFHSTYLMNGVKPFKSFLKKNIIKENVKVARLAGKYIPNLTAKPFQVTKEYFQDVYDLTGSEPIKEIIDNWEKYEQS

Molecule: Saccharomyces cerevisiae type I fatty acid synthase (α6β6, 2.6 MDa) without the γ-subunit
K0.5 (Hill equation) [1]: K0.5=2.1±0.2 µM

KMapp for NADPH, steady-state kinetics of the FAS holoenzyme (saturating γ-subunit) [2]: 155 µM
fold decrease of affinity for acetyl-CoA, steady-state kinetics [2]: 2 fold
fold decrease of affinity for malonyl-CoA, steady-state kinetics [2]: 4 fold
fold reduction in the binding affinity for NADPH, steady-state kinetics [2]: 15 fold
percent of selected cryo-EM particles in the rotated state, at a 6-fold excess of the γ-subunit [2]: 88%
percent of selected cryo-EM particles in the rotated state, at a 12-fold molar excess of the γ-subunit [2]: 95%
B1: Tma17p, the gamma-subunit of the yeast fatty acid synthase (TMA 17 molecule from Saccharomyces cerevisiae) (protein)
chain: T1 sequence
